Assay [1] concerns the target SUN domain of human SUN1 (amino acid residues 616–812), tags removed (human). The assay can be described thus: SEC-MALS; co-expressed and co-purified samples at >1 mg/ml on Superdex 200 Increase 10/300 GL in 20 mM Tris pH 8.0, 150 mM KCl, 2 mM DTT.
Assay [2] shares this target. The assay can be described thus: SEC-MALS; SUN1-KASH4 after removal of bound zinc by treatment with EDTA.
The target of assay [3] is SUN1 I673E (SUN domain of human SUN1, residues 616–812, I673E), GCN4 tag removed (human). Nature of the assay: SEC-MALS; co-expressed and co-purified samples at >1 mg/ml on Superdex 200 Increase 10/300 GL in 20 mM Tris pH 8.0, 150 mM KCl, 2 mM DTT.

Turning to GPSPPPTWPHLQLCYLQPPPV (domain or fragment) [KASH domain of human KASH5 (amino acid residues 542–562), tags removed], the stoichiometry N (binder:target ratio (6:6)) in assay [1] was found to be 1.

In the case of ASGGPCCSHARIPRTPYLVLSYVNGLPPV (domain or fragment) [KASH domain of human Nesprin-4 (KASH4, amino acid residues 376–404), tags removed], the stoichiometry N (binder:target ratio (6:6)) in assay [2], in assay [1] and in assay [3] was 1 throughout. In assay [2], the stoichiometry N (binder:target ratio (12:12)) is 1.

The values are drawn from publication PMC7800377.
